Blank lines part the entries; values can stand above or below the binder they belong to. Numbered stars: 1 amine (or outer) side, 2 acyl side, 3 side chain; on linkers, the order of the positions; unused ones are H or OH. Square brackets hold non-standard residues; d marks the D form. Primed or numbered codes have the meaning given here. Ends that are not written are not given here. * marks the point of attachment. 6182 = 5-Butyl-2H-pyrazole-3-carboxylic acid, CCCCc1cc(C(=O)*)[nH]n1; Pro(trans-4-NH2) = O=C([C@@H]1C[C@@H](N[*:3])CN1[*:1])[*:2]; Sni = (S)-nipecotic acid, O=C([C@H]1CCCN([*:1])C1)[*:2]; Egg = 2-Amino-3-piperidin-4-yl-propionic acid; Fhy = Amino-piperidin-3-yl-acetic acid; Hyp = O=C(O)[C@@H]1C[C@@H](O)CN1; NMeL = CN[C@@H](CC(C)C)C(=O)O; dDap(Me2)′ = not defined here; AR‑201‑48 = not defined here; AR‑201‑49 = not defined here; AR‑201‑54 = not defined here; AR‑201‑58 = not defined here; AR‑201‑59 = not defined here; Tle = CC(C)(C)[C@H](N)C(=O)O; dNle = CCCC[C@@H](N)C(=O)O; dOrn = NCCC[C@@H](N)C(=O)O; Octanoyl = CCCCCCCC(=O)*; Orn = NCCC[C@H](N)C(=O)O; Ac5c = NC1(C(=O)O)CCCC1; Api = NC1(C(=O)O)CCNCC1; Hexanoyl = CCCCCC(=O)*; Oct = not defined here; Occ = octanoic acid; βAla = NCCC(=O)O
Molecular target: T1, natriuretic peptide receptor-B (human)
T1 chain: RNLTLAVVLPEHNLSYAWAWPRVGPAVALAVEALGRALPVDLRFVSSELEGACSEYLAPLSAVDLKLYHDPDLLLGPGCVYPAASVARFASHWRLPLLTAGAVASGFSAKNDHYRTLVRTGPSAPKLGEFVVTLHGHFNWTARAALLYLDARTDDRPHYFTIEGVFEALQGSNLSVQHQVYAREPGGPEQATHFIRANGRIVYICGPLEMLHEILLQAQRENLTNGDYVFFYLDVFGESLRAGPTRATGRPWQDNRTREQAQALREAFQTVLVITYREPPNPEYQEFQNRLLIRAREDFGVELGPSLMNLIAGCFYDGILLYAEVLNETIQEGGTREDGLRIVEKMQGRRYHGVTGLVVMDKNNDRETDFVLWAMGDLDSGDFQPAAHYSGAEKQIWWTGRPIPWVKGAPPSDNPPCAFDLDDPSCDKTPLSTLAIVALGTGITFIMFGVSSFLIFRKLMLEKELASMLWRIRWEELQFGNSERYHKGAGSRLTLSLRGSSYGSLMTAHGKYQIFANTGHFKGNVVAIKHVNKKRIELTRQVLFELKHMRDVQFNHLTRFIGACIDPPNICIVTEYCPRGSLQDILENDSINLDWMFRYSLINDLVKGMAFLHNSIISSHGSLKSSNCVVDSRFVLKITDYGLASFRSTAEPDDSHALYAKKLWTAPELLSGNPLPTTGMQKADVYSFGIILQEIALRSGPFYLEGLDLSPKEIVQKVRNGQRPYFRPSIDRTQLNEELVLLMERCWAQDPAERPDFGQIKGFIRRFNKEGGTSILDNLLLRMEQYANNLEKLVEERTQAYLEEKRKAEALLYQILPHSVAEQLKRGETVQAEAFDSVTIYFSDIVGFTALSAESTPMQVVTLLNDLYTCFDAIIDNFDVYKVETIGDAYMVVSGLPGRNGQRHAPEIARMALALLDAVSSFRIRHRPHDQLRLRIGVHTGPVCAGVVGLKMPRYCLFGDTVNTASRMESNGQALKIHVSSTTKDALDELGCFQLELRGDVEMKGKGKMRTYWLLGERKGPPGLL
Experiment: cell-based or functional assay

EC50 group, cGMP in GTM-3 cells: ≤ 5 µM
Binder: Octanoyl-[Sni]F[dNle]L[Pro(trans-4-NH2)][NMeL]DRI-NH2 [JAL-1319]

EC50 group, cGMP in GTM-3 cells: ≤ 15 µM
B1: JAL-1340 (peptide)
peptide: [AR‑201‑59]F[dR]L[Hyp][NMeL]DRI-NH2
modifications: reading uncertain; also: printed as (AR-201-59)-Phe-arg-Leu-Hyp-Nml-Asp-Arg-Ile-NH2

EC50 group, cGMP in GTM-3 cells: ≤ 1 µM
Binder: [Occ][Sni]FGL[Pro(trans-4-NH2)][NMeL]DRI-NH2 [JAL-1320]

EC50 group, cGMP in GTM-3 cells: ≤ 1 µM
Binder: Octanoyl-[dA]F[dL]L[Pro(trans-4-NH2)][NMeL]DRI-NH2 [JAL-1296]

EC50 group, cGMP in GTM-3 cells: ≤ 1 µM
Binder: Octanoyl-[Sni]F[dR]L[Hyp][NMeL]DRI-NH2 [JAL-1297]

EC50 group, cGMP in GTM-3 cells: ≤ 15 µM
Binder: Hexanoyl-S[dP]FGLKLDRI-NH2 [JAL-0638]

EC50 group, cGMP in GTM-3 cells: ≤ 1 µM
Binder: Octanoyl-[dA]F[dR]L[Hyp][NMeL]DR[Tle]-NH2 [JAL-1305]

EC50 group, cGMP in GTM-3 cells: ≤ 5 µM
B2: JAL-1316 (peptide)
peptide: [AR‑201‑54]F[dR]L[Hyp][NMeL]DRI-NH2
modifications: reading uncertain; also: printed as (AR-201-54)-Phe-arg-Leu-Hyp-Nml-Asp-Arg-Ile-NH2

EC50 group, cGMP in GTM-3 cells: ≤ 5 µM
Binder: [Occ][Sni]F[dL]L[Pro(trans-4-NH2)](Ac)[NMeL]DRI-NH2 [JAL-1321]

EC50 group, cGMP in GTM-3 cells: ≤ 15 µM
B3: JAL-1339 (peptide)
peptide: [AR‑201‑58]F[dR]L[Hyp][NMeL]DRI-NH2
modifications: reading uncertain; also: printed as (AR-201-58)-Phe-arg-Leu-Hyp-Nml-Asp-Arg-Ile-NH2

EC50 group, cGMP in GTM-3 cells: ≤ 5 µM
Binder: XAFRLXXDRI (Occ-ala-Phe-arg-Leu-Hyp-Dap(Me2)-Asp-Arg-Ile-NH2) [JAL-1314]

EC50 group, cGMP in GTM-3 cells: ≤ 1 µM
Binder: [Occ][dA]F[Fhy]L[Hyp][NMeL]DRI-NH2 [JAL-1336]

EC50 group, cGMP in GTM-3 cells: ≤ 15 µM
Binder: Hexanoyl-P[dA]FGLKLDRI-NH2 [JAL-0634]

EC50 group, cGMP in GTM-3 cells: ≤ 5 µM
Binder: Octanoyl-[dA]F[dR]L[Hyp][NMeL]DR[Ac5c]-NH2 [JAL-1306]

EC50 group, cGMP in GTM-3 cells: ≤ 1 µM
Binder: [Occ][Sni]F[dDap(Me2)′]L[Pro(trans-4-NH2)][NMeL]DRI-NH2 [JAL-1325]

EC50 group, cGMP in GTM-3 cells: ≤ 15 µM
Binder: [AR‑201‑48][dR]L[Hyp][NMeL]DRI-NH2 (reading uncertain; also: printed as (AR-201-48)-arg-Leu-Hyp-Nml-Asp-Arg-Ile-) [JAL-1291]

EC50 group, cGMP in GTM-3 cells: ≤ 5 µM
Binder: [Occ][dA]F[dL]L[Hyp][NMeL]DR[Ac5c]-NH2 [JAL-1335]

EC50 group, cGMP in GTM-3 cells: ≤ 5 µM
B4: JAL-1292 (peptide)
peptide: [AR‑201‑49]F[dR]L[Hyp][NMeL]DRI-NH2
modifications: reading uncertain; also: printed as (AR-201-49)-Phe-arg-Leu-Hyp-Nml-Asp-Arg-Ile-NH2

EC50 group, cGMP in GTM-3 cells: ≤ 15 µM
Binder: Hexanoyl-G[dP]FGLKLDRI-NH2 [JAL-0636]

EC50 group, cGMP in GTM-3 cells: ≤ 15 µM
Binder: XAFRXXXDRI (Occ-ala-Phe-arg-Dap(Me2)-Hyp-Nml-Asp-Arg-Ile-NH2) [JAL-1315]

EC50 group, cGMP in GTM-3 cells: ≤ 5 µM
Binder: [Occ][dA]F[dL]L[Hyp][NMeL]D[Orn]I-NH2 [JAL-1328]

EC50 group, cGMP in GTM-3 cells: ≤ 1 µM
Binder: Octanoyl-[Sni]F[dL]L[Pro(trans-4-NH2)][NMeL]DRI-NH2 [JAL-1295]

EC50 group, cGMP in GTM-3 cells: ≤ 1 µM
Binder: Octanoyl-[Sni]F[dR]L[Pro(trans-4-NH2)][NMeL]DRI-NH2 [JAL-1317]

EC50 group, cGMP in GTM-3 cells: ≤ 1 µM
Binder: [Occ][Sni]F[dL]L[Pro(trans-4-NH2)](βAla)[NMeL]DRI-NH2 [JAL-1323]

EC50 group, cGMP in GTM-3 cells: ≤ 1 µM
Binder: [Occ][dA]F[Api]L[Hyp][NMeL]DRI-NH2 [JAL-1338]

EC50 group, cGMP in GTM-3 cells: ≤ 1 µM
Binder: XXFXLXXDRI (Occ-Sni-Phe-orn(Me2)-Leu-Hyp-Nml-Asp-Arg-Ile-NH2) [JAL-1289]

EC50 group, cGMP in GTM-3 cells: ≤ 1 µM
Binder: Octanoyl-[Sni]F[dOrn]L[Pro(trans-4-NH2)][NMeL]DRI-NH2 [JAL-1318]

EC50 group, cGMP in GTM-3 cells: ≤ 15 µM
Binder: [AR‑201‑48][dL]L[Hyp][NMeL]DRI-NH2 (reading uncertain; also: printed as (AR-201-48)-leu-Leu-Hyp-Nml-Asp-Arg-Ile-) [JAL-1293]

EC50 group, cGMP in GTM-3 cells: ≤ 1 µM
Binder: [Oct][Sni]F[dL]L[Pro(trans-4-NH2)][NMeL]DRI-NH2 (reading uncertain; also: printed as Oct-Sni-Phe-leu-Leu-Tap-Nml-Asp-Arg-Ile-NH2) [JAL-1326]

EC50 group, cGMP in GTM-3 cells: ≤ 15 µM
Binder: Hexanoyl-[dA][dA]FGLKLDRI-NH2 [JAL-0635]

EC50 group, cGMP in GTM-3 cells: ≤ 5 µM
Binder: [Occ][dA]F[dL]L[Hyp][NMeL]TRI-NH2 [JAL-1334]

EC50 group, cGMP in GTM-3 cells: ≤ 5 µM
B5: JAL-1324 (peptide)
peptide: XFRLXXDRI
HELM: PEPTIDE1{[CCCCCCCCS(=O)(=O)CCC(=O)[*:2]].F.[dR].L.[Hyp].[meL].D.R.I.[am]}$$$$V2.0; N-terminus assumed
SMILES: CCCCCCCCS(=O)(=O)CCC(=O)N[C@@H](Cc1ccccc1)C(=O)N[C@H](CCCNC(=N)N)C(=O)N[C@@H](CC(C)C)C(=O)N1C[C@H](O)C[C@H]1C(=O)N(C)[C@@H](CC(C)C)C(=O)N[C@@H](CC(=O)O)C(=O)N[C@@H](CCCNC(=N)N)C(=O)N[C@H](C(N)=O)[C@@H](C)CC

EC50 group, cGMP in GTM-3 cells: ≤ 1 µM
Binder: Octanoyl-[Sni]F[dL]L[Hyp][NMeL]DRI-NH2 [JAL-1302]

EC50 group, cGMP in GTM-3 cells: ≤ 5 µM
Binder: [Occ][dA]F[Egg]L[Hyp][NMeL]DRI-NH2 [JAL-1337]

EC50 group, cGMP in GTM-3 cells: ≤ 5 µM
Binder: [Occ][dA]F[dR]L[Hyp][NMeL]TRI-NH2 [JAL-1333]

EC50 group, cGMP in GTM-3 cells: ≤ 1 µM
B6: JAL-1294 (peptide)
peptide: [AR‑201‑49]F[dL]L[Hyp][NMeL]DRI-NH2
modifications: reading uncertain; also: printed as (AR-201-49)-Phe-leu-Leu-Hyp-Nml-Asp-Arg-Ile-NH2

EC50 group, cGMP in GTM-3 cells: ≤ 5 µM
Binder: 6182-[dA]F[dR]L[Hyp][NMeL]DRI-NH2 [JAL-1298]

EC50 group, cGMP in GTM-3 cells: ≤ 5 µM
Binder: [Occ][dA]F[dR]L[Hyp][NMeL]VRI-NH2 [JAL-1331]

EC50 group, cGMP in GTM-3 cells: ≤ 1 µM
Binder: [Occ][Sni]F[dL]L[Pro(trans-4-NH2)](Gly)[NMeL]DRI-NH2 [JAL-1322]

EC50 group, cGMP in GTM-3 cells: ≤ 5 µM
Binder: [Occ][dA]F[dR]L[Hyp][NMeL]D[Orn]I-NH2 [JAL-1327]

— patent US9187525B2, “Methods of treating ophthalmic diseases using NPR-B agonists” (Shire Orphan Therapies GmbH, dated 2015)
